We go through 36 molecules from patent US7091311 (GlaxoSmithKline, dated 2006).

T1: full length human TPO-R (human, UniProt P40238 26-635)
T1 sequence (looked up): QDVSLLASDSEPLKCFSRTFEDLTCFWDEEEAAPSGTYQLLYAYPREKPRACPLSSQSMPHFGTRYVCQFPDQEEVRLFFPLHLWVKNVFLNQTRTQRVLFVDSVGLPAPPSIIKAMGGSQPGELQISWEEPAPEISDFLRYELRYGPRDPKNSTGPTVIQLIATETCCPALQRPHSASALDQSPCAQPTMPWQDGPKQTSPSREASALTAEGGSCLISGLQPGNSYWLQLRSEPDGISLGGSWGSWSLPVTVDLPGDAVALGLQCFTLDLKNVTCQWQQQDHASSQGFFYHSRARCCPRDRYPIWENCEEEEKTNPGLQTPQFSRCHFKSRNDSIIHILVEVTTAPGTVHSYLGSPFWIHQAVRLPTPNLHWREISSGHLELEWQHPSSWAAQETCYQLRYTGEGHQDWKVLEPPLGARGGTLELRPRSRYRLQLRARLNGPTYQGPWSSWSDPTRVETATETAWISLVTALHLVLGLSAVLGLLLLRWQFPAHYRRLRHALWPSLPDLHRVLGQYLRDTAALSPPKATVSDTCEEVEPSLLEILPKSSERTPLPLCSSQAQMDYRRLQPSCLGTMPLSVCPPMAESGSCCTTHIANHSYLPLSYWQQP

*1 amine or outer side, *2 acyl side, *3 side chain or, on linkers, in order; H or OH if unused. Bridges are numbered along the chain shown (N, C = ends). Where no end group is shown, it is not given here. [ ]: non-standard residue; d: D form. Phe(4-NO2) = N[C@@H](Cc1ccc([N+](=O)[O-])cc1)C(=O)O; Phe(3,4-Cl2) = N[C@@H](Cc1ccc(Cl)c(Cl)c1)C(=O)O; DiPhAla = diphenylalanine (source's own name); Ser(Bzl) = O=C([C@H](COCc1ccccc1)N[*:1])[*:2]; Phe(4-Cl) = N[C@@H](Cc1ccc(Cl)cc1)C(=O)O; 1Nal = N[C@@H](Cc1cccc2ccccc12)C(=O)O; 2Nal = N[C@@H](Cc1ccc2ccccc2c1)C(=O)O; NMeF = CN[C@@H](Cc1ccccc1)C(=O)O; hPhe = N[C@@H](CCc1ccccc1)C(=O)O; 2Thi = N[C@@H](Cc1cccs1)C(=O)O; Cha = N[C@@H](CC1CCCCC1)C(=O)O; NMeL = CN[C@@H](CC(C)C)C(=O)O; Phg = N[C@H](C(=O)O)c1ccccc1; Tle = CC(C)(C)[C@H](N)C(=O)O; NMeV = CN[C@H](C(=O)O)C(C)C; NMeA = CN[C@@H](C)C(=O)O; Nle = CCCC[C@H](N)C(=O)O; Nva = CCC[C@H](N)C(=O)O; Abu = CC[C@H](N)C(=O)O; Aib = CC(C)(N)C(=O)O; Sar = CNCC(=O)O

The target in one test is T1, full length human TPO-R. Nature of the test: cell-based or functional assay.
For the molecule ADGPTLREWISFC (not fully specified; also: further groups not given here) [[drawing CHEM-US-00006] (SEQ ID NO:173)], the EC50 cell proliferation was no more than 200 µM and the EC50 microphysiometer is roughly 200 µM.

As for KADGPTLREWISFE (also: further groups not given here) [[drawing CHEM-US-00014] (SEQ ID NO:181)], the EC50 cell proliferation is no more than 200 µM and the EC50 microphysiometer was roughly 200 µM.

The molecule ADGPTLREWISFC (not fully specified; also: further groups not given here) [[drawing CHEM-US-00013] (SEQ ID NO:173)] displayed an EC50 cell proliferation of no more than 0.5 µM and an EC50 microphysiometer of roughly 200 µM.

Molecule EADGPTLREWISFK (also: further groups not given here) [[drawing CHEM-US-00015] (SEQ ID NO:182)] gave an EC50 cell proliferation of no more than 200 µM and an EC50 microphysiometer of no more than 200 µM.

The target of the next test is T1, full length human TPO-R. Nature of the test: cell-based or functional assay. The source holds these as a separate data set.
CADGPTLREWI[Nle]FC (disulfide 1-14 (inferred); not fully specified) [SEQ ID NO:12 cyclized, S - (Nor-Leu)] came in with an EC50 cell proliferation of no more than 500 nM.

CADGPTLREWIS[2Nal]C (disulfide 1-14 (inferred); not fully specified) [SEQ ID NO:12 cyclized, F - (2-Nal)] yielded an EC50 cell proliferation of no more than 500 nM and an EC50 microphysiometer of no more than 500 nM.

Turning to CADGPTLREWIS[hPhe]C (disulfide 1-14 (inferred); not fully specified) [SEQ ID NO:12 cyclized, F - Homo-Phe], the EC50 cell proliferation is no more than 500 nM and the EC50 microphysiometer is no more than 500 nM.

CADGPTLREWI[Sar]FC (disulfide 1-14 (inferred); not fully specified) [SEQ ID NO:12 cyclized, S - Sar] gave an EC50 cell proliferation of roughly 200000 nM.

CADGPTLREWIS[Phe(3,4-Cl2)]C (disulfide 1-14 (inferred); not fully specified) [SEQ ID NO:12 cyclized, F - (3,4-di-Cl-Phe)] registered an EC50 cell proliferation of no more than 500 nM and an EC50 microphysiometer of no more than 200000 nM.

In the case of CADGPTLREWI[Aib]FC (disulfide 1-14 (inferred); not fully specified) [SEQ ID NO:12 cyclized, S - Aib], the EC50 cell proliferation was no more than 500 nM and the EC50 microphysiometer was no more than 200000 nM.

CADGPTLREWIS[Pyridylala]C (not fully specified (bridges); also: cyclized, type not given here) [SEQ ID NO:12 cyclized, F - (Pyridylala)] yielded an EC50 cell proliferation of no more than 500 nM.

With CADGPTLREWIS[Phe(4-NO2)]C (disulfide 1-14 (inferred); not fully specified) [SEQ ID NO:12 cyclized, F - (p-Nitrophe)], the EC50 cell proliferation was no more than 500 nM and the EC50 microphysiometer is no more than 500 nM.

In the case of CADGPTLREWI[NMeL]FC (disulfide 1-14 (inferred); not fully specified) [SEQ ID NO:12 cyclized, S - (N-Me-Leu)], the EC50 cell proliferation was no more than 200000 nM.

CADGPTLREWIS[1Nal]C (disulfide 1-14 (inferred); not fully specified) [SEQ ID NO:12 cyclized, F - (1-Nal)] gave an EC50 cell proliferation of no more than 500 nM.

Regarding CADGPTLREWIS[NMeA]C (disulfide 1-14 (inferred); not fully specified) [SEQ ID NO:12 cyclized, F - (N-Me-Ala)], the EC50 cell proliferation was roughly 200000 nM.

For the molecule CADGPTLREWI[Abu]FC (disulfide 1-14 (inferred); not fully specified) [SEQ ID NO:12 cyclized, S - Abu], the EC50 cell proliferation was no more than 500 nM.

As to CADGPTLREWI[Tle]FC (disulfide 1-14 (inferred); not fully specified) [SEQ ID NO:12 cyclized, S - (t-Bu-Gly)], the EC50 cell proliferation was roughly 200000 nM.

In the case of CADGPTLREWI[NMeA]FC (disulfide 1-14 (inferred); not fully specified) [SEQ ID NO:12 cyclized, S - (N-Me-Ala)], the EC50 cell proliferation is roughly 200000 nM.

As for CADGPTLREWIS[DiPhAla]C (disulfide 1-14 (inferred); not fully specified) [SEQ ID NO:12 cyclized, F - (DiPh - Ala)], the EC50 cell proliferation is no more than 500 nM.

Molecule CADGPTLREWIS[Cha]C (disulfide 1-14 (inferred); not fully specified) [SEQ ID NO:12 cyclized, F - CHA] had an EC50 cell proliferation of no more than 500 nM and an EC50 microphysiometer of no more than 500 nM.

In turn, CADGPTLREWIS[2Thi]C (disulfide 1-14 (inferred); not fully specified) [SEQ ID NO:12 cyclized, F - Thi] had an EC50 cell proliferation of no more than 500 nM.

In turn, CADGPTLREWIS[Ser(Bzl)]C (disulfide 1-14 (inferred); not fully specified) [SEQ ID NO:12 cyclized, F - (Ser(Bzl))] had an EC50 cell proliferation of no more than 500 nM.

Turning to CADGPTLREWIS[Phg]C (disulfide 1-14 (inferred); not fully specified) [SEQ ID NO:12 cyclized, F - (Phenylgly)], the EC50 cell proliferation is no more than 500 nM and the EC50 microphysiometer was no more than 500 nM.

CADGPTLREWI[NMeV]FC (disulfide 1-14 (inferred); not fully specified) [SEQ ID NO:12 cyclized, S - (N-Me-Val)] gave an EC50 cell proliferation of no more than 200000 nM.

As for CADGPTLREWIS[NMeF]C (disulfide 1-14 (inferred); not fully specified) [SEQ ID NO:12 cyclized, F - (N-Me-Phe)], the EC50 cell proliferation is no more than 500 nM.

The molecule CADGPTLREWI[Nva]FC (disulfide 1-14 (inferred); not fully specified) [SEQ ID NO:12 cyclized, S - Nva] came in with an EC50 cell proliferation of no more than 500 nM and an EC50 microphysiometer of no more than 500 nM.

CADGPTLREWIS[Phe(4-Cl)]C (disulfide 1-14 (inferred); not fully specified) [SEQ ID NO:12 cyclized, F - (p-Cl-Phe)] displayed an EC50 cell proliferation of no more than 500 nM.

The target of another test is T1, full length human TPO-R. As to the kind of experiment: cell-based or functional assay. The source holds these as a separate data set.
As for ADGPTLREWISFC (also: further groups not given here) [[drawing CHEM-US-00035] (SEQ ID NO:173)(SEQ ID NO:173)], the EC50 cell proliferation is no more than 500 nM.

Turning to TLREWISFC (also: further groups not given here) [[drawing CHEM-US-00042] (SEQ ID NO:192)(SEQ ID NO:192)], the EC50 cell proliferation was roughly 200000 nM and the EC50 microphysiometer was roughly 200000 nM.

As for TLREWISFC (also: further groups not given here) [[drawing CHEM-US-00043] (SEQ ID NO:192)(SEQ ID NO:192)], the EC50 cell proliferation was roughly 200000 nM and the EC50 microphysiometer is no more than 500 nM.

GPTLREWISFC (not fully specified; also: further groups not given here) [[drawing CHEM-US-00038] (SEQ ID NO:190)(SEQ ID NO:190)] had an EC50 cell proliferation of no more than 500 nM.

ADGPTLREWISFC (also: further groups not given here) [[drawing CHEM-US-00036] (SEQ ID NO:173)(SEQ ID NO:173)]: the EC50 cell proliferation is no more than 500 nM and the EC50 microphysiometer was no more than 500 nM.

ADGPTLREWISFC (also: further groups not given here) [[drawing CHEM-US-00027] / [drawing CHEM-US-00028] (SEQ ID NO:173)] displayed an EC50 cell proliferation of no more than 500 nM and an EC50 microphysiometer of no more than 500 nM.

Regarding PTLREWISFC (not fully specified; also: further groups not given here) [[drawing CHEM-US-00041] (SEQ ID NO:191)(SEQ ID NO:191)], the EC50 cell proliferation is no more than 500 nM and the EC50 microphysiometer was no more than 500 nM.

Molecule GPTLREWISFC (not fully specified; also: further groups not given here) [[drawing CHEM-US-00039] (SEQ ID NO:190)(SEQ ID NO:190)] had an EC50 cell proliferation of no more than 500 nM and an EC50 microphysiometer of no more than 500 nM.

For PTLREWISFC (not fully specified; also: further groups not given here) [[drawing CHEM-US-00040] (SEQ ID NO:191)(SEQ ID NO:191)], the EC50 cell proliferation was no more than 500 nM.
